Source: patent US20230070731A1, “COMPOSITIONS FOR SMALL MOLECULE CONTROL OF PRECISE BASE EDITING OF TARGET NUCLEIC ACIDS AND METHODS OF USE THEREOF” (THE TRUSTEES OF THE UNIVERSITY OF PENNSYLVANIA, priority 2020, published 2023)

Tested on: BL21(DE3) E. coli
Assay: Bacterial DNA deaminase rifampicin mutagenesis assay (acquired rifampin resistance)
Type: cell-based
Conditions: expression in E. coli
Description: In initial studies, a foreign protein/domain was inserted into an enhanced hyperactive version of AID described in U.S. patent application Ser. No. 16/025,261 (See for example, SEQ ID NO: 20 of the '261 patent application) which is incorporated herein by reference as though set forth in full. This mutant version of the human DNA deaminase AID, involved in antibody maturation was assessed and the loop regions which appeared to be tolerant to insertion of control elements (e.g., Green Fluorescent Protein GFP fragments) were identified as described hereinbelow. Several candidate locations for insertion were identified. We used an E. coli-based rifampin mutagenesis assay to evaluate activity (See Kohli et al., J Biol Chem. (2009) 284:pages 22898-904). In this assay we measure the activity level of a mutator by measuring how many E. coli can be turned resistant to the antibiotic rifampin when the enzyme is turned on.
The mutation frequency of various DNA deaminases, including insertion constructs, were determined using a modified version of previously reported rifampin mutagenesis assay (Kohli, JBC 2009). […] The mutation frequencies were then calculated by the ratio of rifampicin resistant colonies to total population. […]

B1: AID*: hyperactive AID variant (K10E, F42E, T82I, D118A, R119G, K120R, A121R, H130A, R131E, F141Y, F145E, E156G) with N-terminal MBP tag (protein, UniProt Q9GZX7 1-198, looked up, variant K10E F42E T82I D118A R119G K120R A121R H130A R131E F141Y F145E E156G)
Single-stranded DNA cytosine …: MDSLLMNRREFLYQFKNVRWAKGRRETYLCYVVKRRDSATSESLDFGYLRNKNGCHVELLFLRYISDWDLDPGRCYRVTWFISWSPCYDCARHVADFLRGNPNLSLRIFTARLYFCEAGRREPEGLRRLAEAGVQIAIMTYKDYEYCWNTFVENHGRTFKAWEGLHENSVRLSRQLRRILLPLYEVDDLRDAFRTLGL
modifications: N-terminal MBP tag
- Rif^R increase relative to catalytically inactive mutant AID(E58A): 265 fold
